Laboratory results taken from US20050282743A1, “Molecular interactions in cells” (Arbor Vita Corporation, priority 2001, published 2005).

Columns and labels:
[1] = molecular target: T1, GST-Atrophin-1 Interacting Protein PDZ domain 1 (Rattus norvegicus (Rat)), O88382; experiment: G' assay; further: key of the grades not given here
[2] = molecular target: T2, GST-BAI-1 Associated Protein PDZ domain 2 (Mus musculus (Mouse)), Q6RHR9; experiment: G' assay; further: key of the grades not given here
[3] = molecular target: GST-DLG1 PDZ domains 1, 2 (Homo sapiens), Q12959; experiment: G' assay; further: key of the grades not given here
[4] = molecular target: T3, GST-EZRIN Binding Protein 50 PDZ domain 1 (Homo sapiens (Human)), O14745; experiment: G' assay; further: key of the grades not given here
T3 chain: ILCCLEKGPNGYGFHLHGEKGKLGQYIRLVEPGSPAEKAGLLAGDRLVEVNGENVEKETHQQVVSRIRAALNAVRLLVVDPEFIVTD

[5] = molecular target: T4, GST-EZRIN Binding Protein 50 PDZ domain 2 (Homo sapiens (Human)), O14745; experiment: G' assay; further: key of the grades not given here
T4 chain: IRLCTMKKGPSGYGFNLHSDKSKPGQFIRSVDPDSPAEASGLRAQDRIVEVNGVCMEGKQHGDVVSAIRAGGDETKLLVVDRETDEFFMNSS

[6] = molecular target: T5, GST-INADL PDZ domain 8 (Homo sapiens (Human)), Q8NI35; experiment: G' assay; further: key of the grades not given here
T5 chain: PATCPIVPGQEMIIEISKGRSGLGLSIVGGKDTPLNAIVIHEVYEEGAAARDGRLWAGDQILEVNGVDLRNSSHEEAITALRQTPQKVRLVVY

[7] = molecular target: T6, GST-KIAA0807(S) PDZ domain 1 (Homo sapiens (Human)), Q6P0Q8; experiment: G' assay; further: key of the grades not given here
T6 chain: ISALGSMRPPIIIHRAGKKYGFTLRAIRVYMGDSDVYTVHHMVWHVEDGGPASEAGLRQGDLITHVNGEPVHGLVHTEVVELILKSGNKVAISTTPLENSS

[8] = molecular target: GST-KIAA1634 PDZ domain 1 (Homo sapiens (Human)), Q5TCQ9; experiment: G' assay; further: key of the grades not given here
[9] = molecular target: GST-KIAA807 [GST: P08515]; experiment: G' assay; further: key of the grades not given here
[10] = molecular target: T7, GST-MUPP1 PDZ domain 10 (Homo sapiens (Human)), O75970; experiment: G' assay; further: key of the grades not given here
T7 chain: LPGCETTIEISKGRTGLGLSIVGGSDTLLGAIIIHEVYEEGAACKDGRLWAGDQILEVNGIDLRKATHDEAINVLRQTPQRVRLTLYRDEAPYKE

[11] = molecular target: T8, GST-NOS1 PDZ domain 1 (Homo sapiens (Human)), P29475; experiment: G' assay; conditions: remark: other sources report otherwise; further: key of the grades not given here
T8 chain: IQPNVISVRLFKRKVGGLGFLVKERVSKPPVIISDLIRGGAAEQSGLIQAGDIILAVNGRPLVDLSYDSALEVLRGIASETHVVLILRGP

[12] = molecular target: T9, GST-NeDLG PDZ domains 1, 2, Q92796; experiment: G' assay; further: key of the grades not given here
T9 chain: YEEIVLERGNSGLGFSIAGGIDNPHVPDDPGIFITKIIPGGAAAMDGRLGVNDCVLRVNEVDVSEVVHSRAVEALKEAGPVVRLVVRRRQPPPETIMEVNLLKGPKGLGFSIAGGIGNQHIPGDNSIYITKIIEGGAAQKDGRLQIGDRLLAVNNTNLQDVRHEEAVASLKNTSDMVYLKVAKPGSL

[13] = molecular target: T10, GST-Outer Membrane PDZ domain 1 (Homo sapiens (Human)), P57105; experiment: G' assay; further: key of the grades not given here
T10 chain: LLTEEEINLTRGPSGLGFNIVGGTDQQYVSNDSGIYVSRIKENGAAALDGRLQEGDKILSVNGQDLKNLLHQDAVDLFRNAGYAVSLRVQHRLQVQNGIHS

[14] = molecular target: GST-PIST PDZ domain 1 (Mus musculus (Mouse)), Q8BH60; experiment: G' assay; further: key of the grades not given here
[15] = molecular target: GST-PSD95 PDZ domains 1, 2, 3 (Homo sapiens), P78352; experiment: G' assay; further: key of the grades not given here
[16] = molecular target: T11, GST-Shank 1 PDZ domain 1 (Homo sapiens (Human)), Q9UPX8; experiment: G' assay; further: key of the grades not given here
T11 chain: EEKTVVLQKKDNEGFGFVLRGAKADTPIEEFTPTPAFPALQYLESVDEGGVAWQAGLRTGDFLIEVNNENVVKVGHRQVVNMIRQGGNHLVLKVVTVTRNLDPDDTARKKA

[17] = molecular target: T12, GST-Shank 3 PDZ domain 1 (human (hypothetical, computer cloned)), Q9BYB0; experiment: G' assay; further: key of the grades not given here
T12 chain: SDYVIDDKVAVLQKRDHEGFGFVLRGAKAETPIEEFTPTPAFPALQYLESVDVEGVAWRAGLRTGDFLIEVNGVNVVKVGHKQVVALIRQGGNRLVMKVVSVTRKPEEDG

[18] = molecular target: T13, GST-TIP1 PDZ domain 1 (Table 9 insert) (Homo sapiens (Human)), O14907; experiment: G' assay; further: key of the grades not given here
T13 chain: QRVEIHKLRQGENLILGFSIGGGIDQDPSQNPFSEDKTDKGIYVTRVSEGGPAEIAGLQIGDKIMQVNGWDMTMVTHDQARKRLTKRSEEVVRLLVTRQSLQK

[19] = molecular target: T14, GST-ZO-1 PDZ domain 1 (Rattus norvegicus (Rat)), A0A0G2; experiment: G' assay; further: key of the grades not given here
T14 chain: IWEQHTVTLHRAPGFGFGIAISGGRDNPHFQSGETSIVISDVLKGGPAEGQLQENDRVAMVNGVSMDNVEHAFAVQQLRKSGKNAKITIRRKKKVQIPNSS

[20] = molecular target: T15, GST-ZO-2 PDZ domain 1 (Homo sapiens (Human)), Q9UDY2; experiment: G' assay; further: key of the grades not given here
T15 chain: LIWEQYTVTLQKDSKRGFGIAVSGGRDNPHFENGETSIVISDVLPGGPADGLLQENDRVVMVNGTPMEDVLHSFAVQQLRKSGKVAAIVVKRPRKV

[21] = molecular target: T1, GST-Atrophin-1 Interacting Protein PDZ …; experiment: G assay titration, PDZ 1 ug/ml
[22] = molecular target: T7, GST-MUPP1 PDZ domain 10 (Homo sapiens …); experiment: G assay titration, PDZ 1 ug/ml
[23] = molecular target: T11, GST-Shank 1 PDZ domain 1 (Homo sapiens …); experiment: G assay titration, PDZ 1 ug/ml
[24] = molecular target: T14, GST-ZO-1 PDZ domain 1 (Rattus …); experiment: G assay titration, PDZ 1 ug/ml
[25] = molecular target: T15, GST-ZO-2 PDZ domain 1 (Homo sapiens …); experiment: G assay titration, PDZ 1 ug/ml
[26] = molecular target: T6, GST-KIAA0807(S) PDZ domain 1 (Homo …); experiment: G assay titration, PDZ 5 ug/ml
[27] = molecular target: GST-KIAA807 [GST: P08515]; experiment: G assay titration, PDZ 5 ug/ml
[28] = molecular target: T2, GST-BAI-1 Associated Protein PDZ domain …; experiment: G assay titration, PDZ 0.1 ug/ml
[29] = molecular target: GST-KIAA1634 PDZ domain 1 (Homo sapiens (Human)), Q5TCQ9; experiment: G assay titration, PDZ 0.3 ug/ml
[30] = molecular target: GST-PIST PDZ domain 1 (Mus musculus (Mouse)), Q8BH60; experiment: G assay titration, PDZ 0.5 ug/ml
[31] = molecular target: T15, GST-ZO-2 PDZ domain 1 (Homo sapiens …); experiment: G assay with desipramine or nortryptilline against no drug
[32] = molecular target: T16, GST-FLJ 10324 PDZ domain 1 [GST: P08515]; experiment: G' assay; further: key of the grades not given here
T16 chain: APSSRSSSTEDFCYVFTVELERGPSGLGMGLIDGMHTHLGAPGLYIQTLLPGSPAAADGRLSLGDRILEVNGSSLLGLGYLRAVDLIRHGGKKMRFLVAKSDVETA

[33] = molecular target: T17, GST-HEMBA 1003117 PDZ domain 1 (Homo sapiens (Human)), Q96JH8; experiment: G' assay; further: key of the grades not given here
T17 chain: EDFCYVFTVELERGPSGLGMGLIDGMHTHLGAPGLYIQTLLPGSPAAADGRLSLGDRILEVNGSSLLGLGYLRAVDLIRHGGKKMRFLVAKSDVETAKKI

[34] = molecular target: T18, GST-PICK1 PDZ domain 1 (Bos taurus (Bovine)), Q2T9M1; experiment: G' assay; further: key of the grades not given here
T18 chain: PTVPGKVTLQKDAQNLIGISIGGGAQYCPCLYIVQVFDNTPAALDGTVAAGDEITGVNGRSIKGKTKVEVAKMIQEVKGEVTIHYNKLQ

[35] = molecular target: T19, GST-PTPL1 PDZ domain 4 (Homo sapiens (Human)), Q12923; experiment: G' assay; further: key of the grades not given here
T19 chain: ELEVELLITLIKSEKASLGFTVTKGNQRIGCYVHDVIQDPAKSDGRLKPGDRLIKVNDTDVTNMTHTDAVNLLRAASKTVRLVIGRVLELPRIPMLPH

[36] = molecular target: T20, GST-ZO-1 PDZ domain 2 (Rattus norvegicus (Rat)), A0A0G2; experiment: G' assay; further: key of the grades not given here
T20 chain: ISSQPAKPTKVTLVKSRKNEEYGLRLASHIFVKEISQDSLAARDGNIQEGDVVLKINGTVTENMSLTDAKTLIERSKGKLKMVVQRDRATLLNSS

[37] = molecular target: T16, GST-FLJ 10324 PDZ domain 1 [GST: P08515]; experiment: G assay titration, PDZ 1 ug/ml
[38] = molecular target: T17, GST-HEMBA 1003117 PDZ domain 1 (Homo …); experiment: G assay titration, PDZ 5 ug/ml
[39] = molecular target: GST-KIAA1634 PDZ domain 1 (Homo sapiens (Human)), Q5TCQ9; experiment: G assay titration, PDZ 5 ug/ml
[40] = molecular target: T18, GST-PICK1 PDZ domain 1 (Bos taurus …); experiment: G assay titration, PDZ 5 ug/ml
[41] = molecular target: T19, GST-PTPL1 PDZ domain 4 (Homo sapiens …); experiment: G assay titration, PDZ 5 ug/ml

Sequence of GST-KIAA1634 PDZ domain 1 (Homo sapiens (Human)), Q5TCQ9 (Q5TCQ9 401-502): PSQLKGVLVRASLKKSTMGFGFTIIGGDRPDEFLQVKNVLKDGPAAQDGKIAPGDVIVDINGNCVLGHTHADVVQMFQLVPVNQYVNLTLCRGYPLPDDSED
Sequence of GST-KIAA807 [GST: P08515] (P08515 whole entry, the tested form may be a part): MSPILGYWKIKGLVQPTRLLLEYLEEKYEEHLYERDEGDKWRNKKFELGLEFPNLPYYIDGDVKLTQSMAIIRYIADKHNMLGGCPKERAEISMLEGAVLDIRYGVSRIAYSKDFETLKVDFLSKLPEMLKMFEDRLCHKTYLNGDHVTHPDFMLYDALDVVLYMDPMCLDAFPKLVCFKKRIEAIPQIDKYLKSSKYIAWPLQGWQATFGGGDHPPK
T2 sequence (Q6RHR9 455-558): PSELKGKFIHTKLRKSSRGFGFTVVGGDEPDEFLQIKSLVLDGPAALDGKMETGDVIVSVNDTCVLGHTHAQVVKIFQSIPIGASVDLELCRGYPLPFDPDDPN
T1 sequence (O88382 408-511): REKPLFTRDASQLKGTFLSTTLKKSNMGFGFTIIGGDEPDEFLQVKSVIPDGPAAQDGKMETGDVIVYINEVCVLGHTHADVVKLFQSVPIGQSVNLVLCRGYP
Sequence of GST-PSD95 PDZ domains 1, 2, 3 (Homo sapiens), P78352 (P78352 62-395): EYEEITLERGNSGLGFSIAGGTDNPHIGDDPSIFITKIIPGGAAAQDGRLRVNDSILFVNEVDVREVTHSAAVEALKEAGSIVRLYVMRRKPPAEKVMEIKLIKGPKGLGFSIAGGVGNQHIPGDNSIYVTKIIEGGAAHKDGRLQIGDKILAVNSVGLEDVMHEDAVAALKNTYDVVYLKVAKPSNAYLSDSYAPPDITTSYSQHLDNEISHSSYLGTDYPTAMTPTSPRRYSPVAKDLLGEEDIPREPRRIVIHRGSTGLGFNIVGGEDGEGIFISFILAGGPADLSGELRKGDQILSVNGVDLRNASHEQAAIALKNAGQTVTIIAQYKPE

Binder: TREDIYVNYPTFSRRPKTRV (modifications not checked) [DNAM-1]
- Classification [1]: 3 A450 class
- Classification [2]: 5 A450 class
- Classification [3]: 1 A450 class
- Classification [4]: 1 A450 class
- Classification [5]: 1 A450 class
- Classification [6]: 5 A450 class
- Classification [7]: 3 A450 class
- Classification [8]: 5 A450 class
- Classification [9]: 3 A450 class
- Classification [10]: 4 A450 class
- Classification [11]: 1 A450 class
- Classification [12]: 2 A450 class
- Classification [13]: 1 A450 class
- Classification [14]: 4 A450 class
- Classification [15]: 2 A450 class
- Classification [16]: 5 A450 class
- Classification [17]: 2 A450 class
- Classification [18]: 1 A450 class
- Classification [19]: 2 A450 class
- Classification [20]: 3 A450 class
- Kd [21]: 3000 nM
- Kd [22]: 2500 nM
- Kd [23]: 5000 nM
- Kd [24]: 5000 nM
- Kd [25]: 3000 nM
- Kd [26]: 2000 nM
- Kd [27]: 2000 nM
- Kd [28]: 4000 nM
- Kd [29]: 1000 nM
- Kd [30]: 2500 nM
- fold decrease of binding with drug [31]: 4.2 fold

Binder: RELVDRGEVRQFTLRHWLKV (modifications not checked) [Dopamine transporter]
- Classification [32]: 5 A450 class
- Classification [33]: 5 A450 class
- Classification [7]: 4 A450 class
- Classification [8]: 3 A450 class
- Classification [9]: 4 A450 class
- Classification [34]: 2 A450 class
- Classification [35]: 3 A450 class
- Classification [36]: 1 A450 class
- Kd [37]: 300 nM
- Kd [38]: 300 nM
- Kd [26]: 400 nM
- Kd [39]: 900 nM
- Kd [27]: 400 nM
- Kd [40]: 900 nM
- Kd [41]: 400 nM
